The values that follow come from patent US20210230280A1.

In this experiment the target is FGFR4 (human) (UniProt P22455). In words: ELISA; also printed 0.001 ug/mL. A general note: ELISA stands for enzyme-linked immunosorbent assay.
Chain of FGFR4 (human) (P22455 22-369): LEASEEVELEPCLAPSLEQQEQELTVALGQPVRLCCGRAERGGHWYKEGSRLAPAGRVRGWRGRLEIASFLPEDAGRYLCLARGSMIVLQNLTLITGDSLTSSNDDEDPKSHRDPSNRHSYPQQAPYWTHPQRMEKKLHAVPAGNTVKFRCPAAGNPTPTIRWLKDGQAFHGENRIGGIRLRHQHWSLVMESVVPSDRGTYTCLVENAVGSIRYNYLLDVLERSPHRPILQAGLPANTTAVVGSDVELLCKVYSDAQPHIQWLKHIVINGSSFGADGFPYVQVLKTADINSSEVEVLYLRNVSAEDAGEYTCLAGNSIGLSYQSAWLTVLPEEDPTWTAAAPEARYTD

Regarding ab41948, the dissociation constant Kd amounted to 0.07 nM.

In general, Kd refers to the concentration at which binding is half-saturated. Lower therefore signals tighter binding.
